Measurements from patent US20160083465A1 (AVEO PHARMACEUTICALS, published 2016).

T1: mouse IgG1 Fc-mature human GDF15 fusion protein (mFc-rhGDF15) (mouse; human)
T1 construct: Made in CHOK1SV cells, purified by Protein A and size exclusion; also called mouse Fc fused to human GDF15
T1 chain: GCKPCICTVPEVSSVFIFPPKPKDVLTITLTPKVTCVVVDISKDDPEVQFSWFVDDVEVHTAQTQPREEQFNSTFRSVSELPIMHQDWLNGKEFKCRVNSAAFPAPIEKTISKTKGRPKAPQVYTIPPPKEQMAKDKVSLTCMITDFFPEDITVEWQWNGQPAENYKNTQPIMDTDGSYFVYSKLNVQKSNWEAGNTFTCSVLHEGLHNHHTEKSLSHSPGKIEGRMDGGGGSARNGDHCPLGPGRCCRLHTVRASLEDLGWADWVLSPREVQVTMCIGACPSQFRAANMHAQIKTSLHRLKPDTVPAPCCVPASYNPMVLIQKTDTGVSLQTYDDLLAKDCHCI

B1: Hu01G06-105 (antibody, human IgG1, kappa)
heavy: not shown
light: DIQMTQSPSSLSASVGDRVTITCRTSENLHNYLAWYQQKPGKSPKLLIYDAKTLADGVPSRFSGSGSGTDYTLTISSLQPEDFATYYCQHFWSSPYTFGQGTKLEIKRTVAAPSVFIFPPSDEQLKSGTASVVCLLNNFYPREAKVQWKVDNALQSGNSQESVTEQDSKDSTYSLSSTLTLSKADYEKHKVYACEVTHQGLSSPVTKSFNRGEC
notes: Humanized, human IgG1 kappa; tested in supernatant
B2: Hu01G06-114 (antibody, human IgG1, kappa)
heavy: not shown
light: DIQMTQSPSSLSASVGDRVTITCRTSENLHNYLAWYQQKPGKAPKLLIYDAKTLADGVPSRFSGSGSGTDYTLTISSLQPEDFATYYCQHFWSSPYTFGQGTKLEIKRTVAAPSVFIFPPSDEQLKSGTASVVCLLNNFYPREAKVQWKVDNALQSGNSQESVTEQDSKDSTYSLSSTLTLSKADYEKHKVYACEVTHQGLSSPVTKSFNRGEC
notes: as for B1
B3: Hu01G06-108 (antibody, human IgG1, kappa)
heavy: not shown
light: DIQMTQSPSSLSASVGDRVTITCRTSENLHNYLAWYQQKPGKSPKLLIYDAKTLADGVPSRFSGSGSGTDYTLTISSLQPEDFATYYCQHFWSSPYTFGQGTKLEIKRTVAAPSVFIFPPSDEQLKSGTASVVCLLNNFYPREAKVQWKVDNALQSGNSQESVTEQDSKDSTYSLSSTLTLSKADYEKHKVYACEVTHQGLSSPVTKSFNRGEC
notes: as for B1
B4: Hu01G06-109 (antibody, human IgG1, kappa)
heavy: not shown
light: DIQMTQSPSSLSASVGDRVTITCRTSENLHNYLAWYQQKPGKSPKLLIYDAKTLADGVPSRFSGSGSGTDYTLTISSLQPEDFATYYCQHFWSSPYTFGQGTKLEIKRTVAAPSVFIFPPSDEQLKSGTASVVCLLNNFYPREAKVQWKVDNALQSGNSQESVTEQDSKDSTYSLSSTLTLSKADYEKHKVYACEVTHQGLSSPVTKSFNRGEC
notes: as for B1
B5: Hu01G06-106 (antibody, human IgG1, kappa)
heavy: not shown
light: DIQMTQSPSSLSASVGDRVTITCRTSENLHNYLAWYQQKPGKSPKLLIYDAKTLADGVPSRFSGSGSGTDYTLTISSLQPEDFATYYCQHFWSSPYTFGQGTKLEIKRTVAAPSVFIFPPSDEQLKSGTASVVCLLNNFYPREAKVQWKVDNALQSGNSQESVTEQDSKDSTYSLSSTLTLSKADYEKHKVYACEVTHQGLSSPVTKSFNRGEC
notes: as for B1
B6: Hu01G06-102 (antibody, human IgG1, kappa)
heavy: not shown
light: DIQMTQSPSSLSASVGDRVTITCRTSENLHNYLAWYQQKPGKSPKLLVYDAKTLADGVPSRFSGSGSGTDYTLTISSLQPEDFATYYCQHFWSSPYTFGQGTKLEIKRTVAAPSVFIFPPSDEQLKSGTASVVCLLNNFYPREAKVQWKVDNALQSGNSQESVTEQDSKDSTYSLSSTLTLSKADYEKHKVYACEVTHQGLSSPVTKSFNRGEC
notes: as for B1
B7: Hu01G06-110 (antibody, human IgG1, kappa)
heavy: not shown
light: DIQMTQSPSSLSASVGDRVTITCRTSENLHNYLAWYQQKPGKAPKLLIYDAKTLADGVPSRFSGSGSGTDYTLTISSLQPEDFATYYCQHFWSSPYTFGQGTKLEIKRTVAAPSVFIFPPSDEQLKSGTASVVCLLNNFYPREAKVQWKVDNALQSGNSQESVTEQDSKDSTYSLSSTLTLSKADYEKHKVYACEVTHQGLSSPVTKSFNRGEC
notes: as for B1
B8: Hu01G06-100 (antibody, human IgG1, kappa)
heavy: not shown
light: DIQMTQSPSSLSASVGDRVTITCRTSENLHNYLAWYQQKPGKSPKLLVYDAKTLADGVPSRFSGSGSGTDYTLTISSLQPEDFATYYCQHFWSSPYTFGQGTKLEIKRTVAAPSVFIFPPSDEQLKSGTASVVCLLNNFYPREAKVQWKVDNALQSGNSQESVTEQDSKDSTYSLSSTLTLSKADYEKHKVYACEVTHQGLSSPVTKSFNRGEC
notes: as for B1
B9: Hu01G06-112 (antibody, human IgG1, kappa)
heavy: not shown
light: DIQMTQSPSSLSASVGDRVTITCRTSENLHNYLAWYQQKPGKAPKLLIYDAKTLADGVPSRFSGSGSGTDYTLTISSLQPEDFATYYCQHFWSSPYTFGQGTKLEIKRTVAAPSVFIFPPSDEQLKSGTASVVCLLNNFYPREAKVQWKVDNALQSGNSQESVTEQDSKDSTYSLSSTLTLSKADYEKHKVYACEVTHQGLSSPVTKSFNRGEC
notes: as for B1
B10: Hu01G06-111 (antibody, human IgG1, kappa)
heavy: not shown
light: DIQMTQSPSSLSASVGDRVTITCRTSENLHNYLAWYQQKPGKAPKLLIYDAKTLADGVPSRFSGSGSGTDYTLTISSLQPEDFATYYCQHFWSSPYTFGQGTKLEIKRTVAAPSVFIFPPSDEQLKSGTASVVCLLNNFYPREAKVQWKVDNALQSGNSQESVTEQDSKDSTYSLSSTLTLSKADYEKHKVYACEVTHQGLSSPVTKSFNRGEC
notes: as for B1
B11: Hu01G06-107 (antibody, human IgG1, kappa)
heavy: not shown
light: DIQMTQSPSSLSASVGDRVTITCRTSENLHNYLAWYQQKPGKSPKLLIYDAKTLADGVPSRFSGSGSGTDYTLTISSLQPEDFATYYCQHFWSSPYTFGQGTKLEIKRTVAAPSVFIFPPSDEQLKSGTASVVCLLNNFYPREAKVQWKVDNALQSGNSQESVTEQDSKDSTYSLSSTLTLSKADYEKHKVYACEVTHQGLSSPVTKSFNRGEC
notes: as for B1
B12: Hu01G06-113 (antibody, human IgG1, kappa)
heavy: not shown
light: DIQMTQSPSSLSASVGDRVTITCRTSENLHNYLAWYQQKPGKAPKLLIYDAKTLADGVPSRFSGSGSGTDYTLTISSLQPEDFATYYCQHFWSSPYTFGQGTKLEIKRTVAAPSVFIFPPSDEQLKSGTASVVCLLNNFYPREAKVQWKVDNALQSGNSQESVTEQDSKDSTYSLSSTLTLSKADYEKHKVYACEVTHQGLSSPVTKSFNRGEC
notes: as for B1
B13: Hu01G06-101 (antibody, human IgG1, kappa)
heavy: not shown
light: DIQMTQSPSSLSASVGDRVTITCRTSENLHNYLAWYQQKPGKSPKLLVYDAKTLADGVPSRFSGSGSGTDYTLTISSLQPEDFATYYCQHFWSSPYTFGQGTKLEIKRTVAAPSVFIFPPSDEQLKSGTASVVCLLNNFYPREAKVQWKVDNALQSGNSQESVTEQDSKDSTYSLSSTLTLSKADYEKHKVYACEVTHQGLSSPVTKSFNRGEC
notes: as for B1
B14: Hu01G06-104 (antibody, human IgG1, kappa)
heavy: not shown
light: DIQMTQSPSSLSASVGDRVTITCRTSENLHNYLAWYQQKPGKSPKLLVYDAKTLADGVPSRFSGSGSGTDYTLTISSLQPEDFATYYCQHFWSSPYTFGQGTKLEIKRTVAAPSVFIFPPSDEQLKSGTASVVCLLNNFYPREAKVQWKVDNALQSGNSQESVTEQDSKDSTYSLSSTLTLSKADYEKHKVYACEVTHQGLSSPVTKSFNRGEC
notes: as for B1
B15: Hu01G06-103 (antibody, human IgG1, kappa)
heavy: not shown
light: DIQMTQSPSSLSASVGDRVTITCRTSENLHNYLAWYQQKPGKSPKLLVYDAKTLADGVPSRFSGSGSGTDYTLTISSLQPEDFATYYCQHFWSSPYTFGQGTKLEIKRTVAAPSVFIFPPSDEQLKSGTASVVCLLNNFYPREAKVQWKVDNALQSGNSQESVTEQDSKDSTYSLSSTLTLSKADYEKHKVYACEVTHQGLSSPVTKSFNRGEC
notes: as for B1
B16: Hu06C11-27 (antibody, human IgG1, kappa)
heavy: not shown
light: DIQMTQSPSSLSASVGDRVTITCKASQNVGTNVAWFQQKPGKAPKSLIYSASYRYSGVPSRFSGSGSGTDFTLTISSLQPEDFATYYCQQYNNYPLTFGQGTKLEIKRTVAAPSVFIFPPSDEQLKSGTASVVCLLNNFYPREAKVQWKVDNALQSGNSQESVTEQDSKDSTYSLSSTLTLSKADYEKHKVYACEVTHQGLSSPVTKSFNRGEC
notes: Humanized, human IgG1 kappa
B17: Hu06C11-30 (antibody, human IgG1, kappa)
heavy: not shown
light: DIQMTQSPSSLSASVGDRVTITCKASQNVGTNVAWFQQKPGKAPKSLIYSASYRYSGVPSRFSGSGSGTDFTLTISSLQPEDFATYYCQQYNNYPLTFGQGTKLEIKRTVAAPSVFIFPPSDEQLKSGTASVVCLLNNFYPREAKVQWKVDNALQSGNSQESVTEQDSKDSTYSLSSTLTLSKADYEKHKVYACEVTHQGLSSPVTKSFNRGEC
notes: Humanized, human IgG1 kappa
B18: Hu06C11-1 (antibody, human IgG1, kappa)
heavy: not shown
light: DIVMTQSQKFMSTSVGDRVSVTCKASQNVGTNVAWFQQKPGQSPKALIYSASYRYSGVPDRFTGSGSGTDFILTISNVQSEDLAEYFCQQYNNYPLTFGAGTKLELKRTVAAPSVFIFPPSDEQLKSGTASVVCLLNNFYPREAKVQWKVDNALQSGNSQESVTEQDSKDSTYSLSSTLTLSKADYEKHKVYACEVTHQGLSSPVTKSFNRGEC
notes: Mouse variable regions, human IgG1 and kappa constant regions; also called Chimeric 06C11

Target: T1, mouse IgG1 Fc-mature human GDF15 fusion …
Assay: SPR Biacore T100, 37 C, antibody from supernatant captured by anti-human IgG Fc, antigen in solution

B1 and B2 are the same in Kd: 0.13 nM for the first, 0.13 nM for the second.

B3 and B4 are within 1.5-fold of each other in Kd: 0.12 nM for the first, 0.13 nM for the second.

B5 and B6 are within 1.5-fold of each other in Kd: 0.16 nM for the first, 0.11 nM for the second.

B7 and B8 are within 1.5-fold of each other in Kd: 0.14 nM for the first, 0.15 nM for the second.

B9 and B10 are within 1.5-fold of each other in Kd: 0.12 nM for the first, 0.16 nM for the second.

B11 and B12 are within 1.5-fold of each other in Kd: 0.12 nM for the first, 0.11 nM for the second.

B13 and B14 are within 1.5-fold of each other in Kd: 0.14 nM for the first, 0.12 nM for the second.

B15 gave a Kd of 0.11 nM.

B1 and B2 are within 1.5-fold of each other in koff: 0.00056 s⁻¹ for the first, 0.00054 s⁻¹ for the second.

B3 and B4 are within 1.5-fold of each other in koff: 0.00046 s⁻¹ for the first, 0.00056 s⁻¹ for the second.

Compared with B5, B6 is 1.5-fold lower in koff: 0.0007 s⁻¹ for the first, 0.00046 s⁻¹ for the second.

B7 and B8 are within 1.5-fold of each other in koff: 0.00058 s⁻¹ for the first, 0.00062 s⁻¹ for the second.

B9 and B10 are within 1.5-fold of each other in koff: 0.00053 s⁻¹ for the first, 0.00066 s⁻¹ for the second.

B11 and B12 are within 1.5-fold of each other in koff: 0.00047 s⁻¹ for the first, 0.00048 s⁻¹ for the second.

B13 and B14 are within 1.5-fold of each other in koff: 0.00063 s⁻¹ for the first, 0.00052 s⁻¹ for the second.

In the case of B15, the koff is reported as 0.00047 s⁻¹.

B1 and B2 are within 1.5-fold of each other in kon: 4.3e+06 M⁻¹ s⁻¹ for the first, 4.5e+06 M⁻¹ s⁻¹ for the second.

B3 and B4 are within 1.5-fold of each other in kon: 4.2e+06 M⁻¹ s⁻¹ for the first, 4.6e+06 M⁻¹ s⁻¹ for the second.

B5 and B6 are within 1.5-fold of each other in kon: 4.3e+06 M⁻¹ s⁻¹ for the first, 4.4e+06 M⁻¹ s⁻¹ for the second.

B7 and B8 are within 1.5-fold of each other in kon: 4.3e+06 M⁻¹ s⁻¹ for the first, 4.1e+06 M⁻¹ s⁻¹ for the second.

B9 and B10 are within 1.5-fold of each other in kon: 4.7e+06 M⁻¹ s⁻¹ for the first, 4.3e+06 M⁻¹ s⁻¹ for the second.

B11 and B12 are within 1.5-fold of each other in kon: 4.1e+06 M⁻¹ s⁻¹ for the first, 4.5e+06 M⁻¹ s⁻¹ for the second.

B13 and B14 are within 1.5-fold of each other in kon: 4.4e+06 M⁻¹ s⁻¹ for the first, 4.5e+06 M⁻¹ s⁻¹ for the second.

B15 gave a kon of 4.4e+06 M⁻¹ s⁻¹.

Target: T1, mouse IgG1 Fc-mature human GDF15 fusion …
Assay: SPR Biacore T100, 37 C, purified antibody captured by anti-human IgG Fc, antigen in solution
Protocol: Goat anti-human IgGs (Fc fragment specific, Jackson ImmunoResearch, West Grove, Pa.) were immobilized on carboxymethylated dextran CM4 sensor chips by amine coupling, according to a standard protocol. Analyses were performed at 37° C. using PBS containing 0.05% surfactant P20 as running buffer. The antibodies were captured in individual flow cells at a flow rate of 10 μL/minute. Injection time was varied for each antibody to yield an Rmax between 30 and 60 RU. […] The dissociation phase was monitored for up to 1200 seconds. The surface was then regenerated with two 60-second injections of 10 mM Glycine-HCl, pH 2.25, at a flow rate of 30 μL/minute.
Kinetic parameters were determined using the kinetic function of the BIAevaluation software (GE Healthcare) with double reference subtraction.

B16 and B17 are the same in Kd: 0.18 nM for the first, 0.18 nM for the second.

B18 gave a Kd of 0.18 nM.

B16 and B17 are within 1.5-fold of each other in koff: 0.00082 s⁻¹ for the first, 0.00087 s⁻¹ for the second.

B18 was tested, and the koff was 0.00084 s⁻¹.

B16 and B17 are within 1.5-fold of each other in kon: 4.7e+06 M⁻¹ s⁻¹ for the first, 4.8e+06 M⁻¹ s⁻¹ for the second.

In the case of B18, the kon is reported as 5.3e+06 M⁻¹ s⁻¹.
